The test system of the series is T1, NC(=O)C1=CN([C@@H]2O[C@H](COP(=O)(O)OP(=O)(O)OC[C@H]3O[C@@H](n4cnc5c(N)ncnc54)[C@H](OP(=O)(O)O)[C@@H]3O)[C@@H](O)[C@H]2O)C=CC1.
T1 construct: N-terminal 69 residues (membrane anchor) removed, His6-tag kept (probably N-terminal, 660 residues with tag), expressed in E. coli BL21(DE3), Ni-NTA purified
In words: purified protein. The class given is biochemical, Camptotheca acuminata. The following applies: 75 μM equine heart cytochrome c, 50 mM Tris-HCl pH 7.4, 25°C.

The record followed here is article PMC4529168, “Molecular Cloning, Heterologous Expression, and Functional Characterization of an NADPH-Cytochrome P450 Reductase Gene from Camptotheca acuminata, a Camptothecin-Producing Plant” (PLoS ONE, 2015).

tCamCPR (Camptotheca acuminata), sequence (chain, as listed by the source): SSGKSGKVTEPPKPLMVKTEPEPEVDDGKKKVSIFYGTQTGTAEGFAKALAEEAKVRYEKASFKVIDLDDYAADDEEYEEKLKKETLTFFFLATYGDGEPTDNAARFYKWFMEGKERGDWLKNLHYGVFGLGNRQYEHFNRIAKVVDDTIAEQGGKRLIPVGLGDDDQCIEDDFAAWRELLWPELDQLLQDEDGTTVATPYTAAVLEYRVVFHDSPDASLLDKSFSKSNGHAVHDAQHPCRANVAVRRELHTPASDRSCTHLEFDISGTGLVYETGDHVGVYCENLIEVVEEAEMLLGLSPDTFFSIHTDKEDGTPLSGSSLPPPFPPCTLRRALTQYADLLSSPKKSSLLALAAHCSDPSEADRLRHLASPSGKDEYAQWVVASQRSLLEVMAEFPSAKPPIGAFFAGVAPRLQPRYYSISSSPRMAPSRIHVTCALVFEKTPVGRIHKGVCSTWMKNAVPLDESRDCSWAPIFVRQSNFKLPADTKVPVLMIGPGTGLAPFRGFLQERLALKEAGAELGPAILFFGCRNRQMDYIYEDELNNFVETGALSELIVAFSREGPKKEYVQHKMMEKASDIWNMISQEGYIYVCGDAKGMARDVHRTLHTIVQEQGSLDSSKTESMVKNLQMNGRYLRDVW

On to tCamCPR (Camptotheca acuminata), for which the Km is 18.7 ± 3.6 µM.
